Measurements from US20220064294A1 (ARCUS BIOSCIENCES, published 2022).
Positions count from the first letter of the chain named.

T1: human TIGIT, full length, on cells (human, UniProt Q495A1 22-244)
T1 construct: also called hTIGIT; hTIGIT-CHO
T1 sequence: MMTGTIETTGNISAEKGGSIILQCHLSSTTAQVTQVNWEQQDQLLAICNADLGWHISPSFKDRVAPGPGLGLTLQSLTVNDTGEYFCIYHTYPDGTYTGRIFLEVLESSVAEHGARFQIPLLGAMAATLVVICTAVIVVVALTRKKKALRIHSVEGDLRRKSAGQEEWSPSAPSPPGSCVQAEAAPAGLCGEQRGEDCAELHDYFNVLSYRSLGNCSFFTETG

T2: hTIGIT-His (human)
T2 construct: also called His-tagged human TIGIT protein extracellular domain; soluble hTIGIT-His
T2 chain: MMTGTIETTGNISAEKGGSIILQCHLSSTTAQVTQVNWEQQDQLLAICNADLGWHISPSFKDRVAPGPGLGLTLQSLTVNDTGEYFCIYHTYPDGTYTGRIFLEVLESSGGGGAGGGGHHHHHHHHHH

T3: cTIGIT-His (cynomolgus monkey)
T3 construct: also called His-tagged cyno TIGIT protein extracellular domain; soluble cTIGIT-His
T3 chain: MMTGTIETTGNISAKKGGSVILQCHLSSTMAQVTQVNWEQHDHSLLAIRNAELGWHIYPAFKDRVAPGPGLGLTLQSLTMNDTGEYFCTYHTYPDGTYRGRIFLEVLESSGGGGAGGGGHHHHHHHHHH

B1: 5J24 (antibody, V domains shown)
VH: QVQLQQSGAELVRPGTSVKMSCKAAGYTFTNHWIGWVKQRPGHGLEWIGDIYPGGGYTNYNEKFKGKATLTADTSSSTAYMYLSSLTSEDSAIYYCARSYGYDLYAMDYWGQGTSVTVSS
VL: DIQMTQSPSSLSASLGERVSLTCRASQEISGYLSWLQQKPDGTIKRLIYAASTLGSGVPKRFSGSRSGSDYSLTISSLESEDFADYYCLQYDSYPFTFGAGTKLELK
notes: Mouse monoclonal antibody purified from hybridoma on Protein G; also called mAb 5J24; mouse anti-TIGIT clone 5J24
B2: 30M18 (antibody, V domains shown)
VH: EVQLQQSGPELVKPGASVKISCKTSGYTFTEYTMHWVKQSHGKSLEWIGGINPNNGGTSYNQKFKGKATLTVDKSSSTAYMELRSLTSEDSAVYYCARSGHMDYGYVYWGQGTTLTVSS
VL: DIVMTQSHKFMSTSVGDRVSITCKASQYVSTAVAWYQQKPGQSPKLLIYSPSYRYTGVPDRFTGSGSGTDFTFTISSVQAEDLAVYYCQQHYSTPWTFGGGTKLEIK
notes: Mouse monoclonal antibody purified from hybridoma on Protein G; also called mAb 30M18; mouse anti-TIGIT clone 30M18
B3: 21F8 (antibody, V domains shown)
VH: DVQLQESGPGLVKPSQSLSLTCTVTGYSITSDYAWNWIRQFPGNKLEWMGYISYSGSTSYNPSLKSRISITRDTSKNQFFLQLNSVTTEDTATYYCARFMITTFAMDYWGQGTAVTVSS
VL: B2 VL with Y28H, P51A, S52P, S93N, P95L
notes: Mouse monoclonal antibody purified from hybridoma on Protein G; also called mAb 21F8; mouse anti-TIGIT clone 21F8
B4: 24F8 (antibody, V domains shown)
VH: DVQLQESGPDLVKPSQSLSLTCTVTGYSITSGYSWHWIRQFPGNKLDWMGYVHYSGSTNYNPSLKSRISITRDTSKNQFFLQLNSVTTEDTATFYCARMDYGNYGGAMDYWGQGTSVTVSS
VL: B2 VL with D1E, Y28D, S30R, P51A, H91Y, P95Q
notes: Mouse monoclonal antibody purified from hybridoma on Protein G; also called mAb 24F8; mouse anti-TIGIT clone 24F8
B5: 22B22 (antibody, V domains shown)
VH: EVQLVESGGGLVKPGGSLKLSCAASGFTFSSYAMSWVRQSPEKRLEWVAEISSGGSYTYYPDTVTGRFTISRDNAKNTLYLEMSSLRSEDTAMYYCARKRRDYYAMDYWGQGTSVTVSS
VL: DVQITQSPSYLAASPGETITINCRASKSISKYLAWYQEKPGKTNKLLIYSGSTLQSGIPSRFSGSGSGTDFTLTISSLEPEDFAMYYCQQHNEYPWTFGGGTKLEIK
notes: Mouse monoclonal antibody purified from hybridoma on Protein G; also called mAb 22B22; mouse anti-TIGIT clone 22B22
B6: 28P24 (antibody, V domains shown)
VH: QVQLQQSGAELVRPGTSVKMSCKAAGYTFTNYFIGWVKQRPGHGLDWIGDIYPGGGYTNYNEKFKGKATLTADTSSSTAYMQLSSLTSEDSAIYYCVRFYGNYVFAYWGQGTLVTVSA
VL: B5 VL with Y10C, S28T
notes: Mouse monoclonal antibody purified from hybridoma on Protein G; also called mAb 28P24; mouse anti-TIGIT clone 28P24
B7: 21B16 (antibody, V domains shown)
VH: B5 VH with S31T, S56T, Y60F
VL: B5 VL with M85V
notes: Mouse monoclonal antibody purified from hybridoma on Protein G; also called mAb 21B16; mouse anti-TIGIT clone 21B16
B8: 21B9 (antibody, V domains shown)
VH: B5 VH with A23T, P61T, A105G
VL: B5 VL with S56T
notes: Mouse monoclonal antibody purified from hybridoma on Protein G; also called mAb 21B9; mouse anti-TIGIT clone 21B9
B9: 28O12 (antibody, V domains shown)
VH: B5 VH with S31N, S53G, Y60H
VL: B5 VL
notes: Mouse monoclonal antibody purified from hybridoma on Protein G; also called mAb 28O12; mouse anti-TIGIT clone 28O12
B10: Hu24F8.1 Fab (Fab, V domains shown)
VH: QVQLQESGPGLVKPSETLSLTCAVYGYSITSGYSWHWIRQPPGKGLEWIGYVHYSGSTNYNPSLKSRVTISVDTSKNQFSLKLSSVTAADTAVYYCARMDYGNYGGAMDYWGQGTLVTVSS
VL: EIVMTQSPATLSVSPGERATLSCKASQDVRTAVAWYQQKPGQAPRLLIYSASYRYTGIPARFSGSGSGTEFTLTISSLQSEDFAVYYCQQYYSTQWTFGGGTKVEIK
notes: Fab with human IgG1/kappa constant domains, secreted as a SASA fusion protein and tested as supernatant; also called VH1 + VL2
B11: Hu24F8.3 Fab (Fab, V domains shown)
VH: B10 VH with E16G, Y25S, I38V, T74K
VL: DIQMTQSPSSLSASVGDRVTITCKASQDVRTAVAWYQQKPGKAPKLLIYSASYRYTGVPSRFSGSGSGTDFTFTISSLQPEDIATYYCQQYYSTQWTFGGGTKLEIK
notes: Fab with human IgG1/kappa constant domains, secreted as a SASA fusion protein and tested as supernatant; also called VH2 + VL1
B12: Hu24F8.4 Fab (Fab, V domains shown)
VH: B10 VH
VL: B11 VL
notes: Fab with human IgG1/kappa constant domains, secreted as a SASA fusion protein and tested as supernatant; also called VH1 + VL1
B13: Hu24F8.2 Fab (Fab, V domains shown)
VH: B10 VH with E16G, Y25S, I38V, T74K
VL: B10 VL
notes: Fab with human IgG1/kappa constant domains, secreted as a SASA fusion protein and tested as supernatant; Not the same preparation as Fab24F8 (papain fragment); also called VH2 + VL2
B14: chimera Fab mVH+mVL (mouse 24F8VH and 24F8VL with human IgG1/kappa Fab constant domains) (Fab, V domains shown)
VH: B4 VH
VL: B2 VL with D1E, Y28D, S30R, P51A, H91Y, P95Q
notes: also called mouse/human chimera Fab

What follows are binders tested against T4, cynomolgus monkey TIGIT, full length, on cells (cynomolgus monkey) (assay: flow cytometry on CHO-K1 cells expressing cyno TIGIT).
T4 construct: Whole entry of 312 amino acids; also called cyno TIGIT; cTIGIT
Experimental: (§1) These clones were further expanded, and antibodies were purified using a Protein G column. These purified antibodies were tested for binding to human and cyno TIGIT expressed on cell surface by flow cytometry. Stable CHO-K1 cell lines expressing full length human TIGIT clone 2A7 (Swiss-Prot Q495A1; SEQ ID NO: 80) or full length cyno TIGIT clone C10 (Swiss-Prot A0A2K5UW92; SEQ ID NO: 84) were developed. For the flow assay, cells were collected and incubated in 100 μL of HBSS buffer in the presence (or absence) of various concentrations of antibodies for 1 hr at 4° C. After washing with HBSS, antibody binding on cells was detected with 2 μg/mL of Alexa488-labeled goat anti-mouse IgG antibody (ThermoFisher Scientific, Cat #A-11001) for 30 min at 4° C. Cells were then washed and resuspended in PBS and subjected to flow cytometry using an Attune NxT flow cytometer (ThermoFisher Scientific, Waltham, Mass.). The geometric mean of the fluorescence intensity was obtained for the whole single cell population. Antibodies capable of binding to both human and cyno TIGIT expressed on cell surface were further tested for their blocking activity against recombinant human CD155 binding to human TIGIT on the surface of CHO cells. CHO-hTIGIT cells (10⁵ cells) were incubated with 2.5 μg/mL hCD155-Fc protein in the presence of various concentrations of antibody at room temperature for 1 hr. […] Cells were then washed and subjected to flow cytometry analysis.
With B1 the EC50 was 1.63 nM.
Work on B2 yielded an EC50 of 1.17 nM.
B3 was tested, and the EC50 was 1.79 nM.
B4 was tested, and the EC50 was 1.85 nM.
Work on B5 yielded an EC50 of 0.58 nM.
For B6, the EC50 was 1.26 nM.
B7 was tested, and the EC50 was 1.2 nM.
B8 gave an EC50 of 0.631 nM.
Binder B9 has an EC50 of 0.71 nM.

Each binder was assayed against T1, human TIGIT, full length, on cells (assay: flow cytometry on CHO-K1 cells expressing human TIGIT).
Experimental: as §1
In the case of B1, the EC50 is reported as 0.704 nM.
Binder B2 has an EC50 of 0.825 nM.
Binder B3 has an EC50 of 0.952 nM.
B4 gave an EC50 of 1.31 nM.
B5 gave an EC50 of 0.507 nM.
B6 was tested, and the EC50 was 0.466 nM.
B7 gave an EC50 of 0.498 nM.
With B8 the EC50 was 0.506 nM.
B9 gave an EC50 of 0.638 nM.

Molecular target: T2, hTIGIT-His
Assay: SPR, Biacore 8K, Fab-SASA supernatant captured on BSA chip, hTIGIT-His as analyte
Excerpt: (§2) Oligonucleotides were designed and synthesized as Fab fragments with human IgG1/kappa constant domains for the two VH and two VL grafted human acceptors and inserted into a vector system for high throughput screening of expression levels and biophysical properties, without the need for protein purification (Zhang & Hirama, Patent Application Publication US 2012/0178110). All four combinations of VH1 (SEQ ID NO: 76) or VH2 (SEQ ID NO: 78) with VL1 (SEQ ID NO: 79) or VL2 (SEQ ID NO: 77) (FIGS. 1J-1M) were screened along with a chimera Fab mVH+mVL constructed from the mouse 24F8VH (SEQ ID NO: 5) & 24F8VL (SEQ ID NO: 6) domains and human IgG1/kappa Fab constant domains. Supernatants of the Fabs, secreted as a SASA (single-domain antibody against serum albumin) fusion proteins were analyzed by surface plasmon resonance (SPR) using a Biacore 8K instrument with Fab capture using an BSA coated chip and soluble His-tagged TIGIT as the analyte. The kinetic binding data for human and cyno TIGIT are shown in Table 9 for the five Fab fragments.
Binder B10 has a Kd of 0.0361 nM, a koff of 0.000111 s⁻¹ and a kon of 3.08e+06 M⁻¹ s⁻¹.
Work on B11 yielded a Kd of 0.242 nM, a koff of 0.000481 s⁻¹ and a kon of 1.99e+06 M⁻¹ s⁻¹.
For B12, the Kd was 0.28 nM, the koff was 0.000855 s⁻¹ and the kon was 3.05e+06 M⁻¹ s⁻¹.
Work on B13 yielded a Kd of 0.045 nM, a koff of 9.39e-05 s⁻¹ and a kon of 2.08e+06 M⁻¹ s⁻¹.
Binder B14 has a Kd of 0.00127 nM, a koff of 2.37e-06 s⁻¹ and a kon of 1.86e+06 M⁻¹ s⁻¹.

Molecular target: T3, cTIGIT-His
Assay: SPR, Biacore 8K, Fab-SASA supernatant captured on BSA chip, cTIGIT-His as analyte
Excerpt: as §2
B10 showed a Kd of 1.26 nM, a koff of 0.0014 s⁻¹ and a kon of 1.11e+06 M⁻¹ s⁻¹.
Binder B11 has a Kd of 6 nM, a koff of 0.00585 s⁻¹ and a kon of 974000 M⁻¹ s⁻¹.
With B12 the Kd was 9.81 nM, the koff was 0.0133 s⁻¹ and the kon was 1.35e+06 M⁻¹ s⁻¹.
B13 was tested, and the Kd was 1.09 nM, the koff was 0.000808 s⁻¹ and the kon was 742000 M⁻¹ s⁻¹.
Binder B14 has a Kd of 0.474 nM, a koff of 0.000728 s⁻¹ and a kon of 1.54e+06 M⁻¹ s⁻¹.

Each binder was assayed against T1, human TIGIT, full length, on cells (assay: flow cytometry, inhibition of hCD155-Fc binding to CHO-hTIGIT cells).
Experimental: as §1
With B1 the IC50 was 1.46 nM.
Binder B2 has an IC50 of 2.19 nM.
For B3, the IC50 was 1.67 nM.
Binder B4 has an IC50 of 1.79 nM.
Work on B5 yielded an IC50 of 0.83 nM.
Work on B6 yielded an IC50 of 1.7 nM.
In the case of B7, the IC50 is reported as 1.15 nM.
In the case of B8, the IC50 is reported as 1.66 nM.
Work on B9 yielded an IC50 of 1.16 nM.
